Results reported in patent US11981740B2, “BAFF-R antibodies and uses thereof” (CITY OF HOPE, priority 2016, dated 2024).

Columns and labels:
[1] = system: ibrutinib-resistant Z-138; assay: In vivo ibrutinib-resistant Z-138 xenograft; design: species or system NSG mice; conditions: Z-138 tumor-bearing mice; compared with PBS or NK only
From the text: (§1) FIGS. 6A and 6B are images and FIG. 6C are graphs showing chimeric antibodies targeting human BAFF-R elicited in vivo therapeutic effects against drug resistant B-cell tumors. Bioluminescence images of mice challenged with luciferase-expressing tumors JeKo-1-CD20-KO cells (FIG. 6A) or ibrutinib-resistant Z-138 cells (FIG. 6B) followed by antibody treatments as in FIG. 4. Control group mice received PBS, NK cells alone, or rituximab on the same schedule. […] Tumor free rate and survival differences between experimental and all control groups were analyzed by log-rank test (**P<0.001). Data are representative of three independent experiments.
(§2) In vivo studies. For tumor models, stable, luciferase-expressing tumors lines were established for bioluminescent imaging in mouse models. Briefly, a luciferase gene was introduced into tumor lines by a lentivirus gene delivery system (pLenti7.3/V5-DEST Gateway Vector Kit, Life Technologies, Carlsbad, CA). The minimum lethal dose per mouse was determined for each tumor cell line by dose titration. Tumor cells were injected intravenously (IV) and mice were monitored by in vivo bioluminescence imaging for minimum tumor dose to ensure engraftment. Minimum lethal tumor doses were: 1×10^6 JeKo-1, 5×10^5 RS4; 11, 5×10^5 JeKo-1-CD20-KO, or 2.5×10^4 Z-138 cells. […]

[2] = system: RS4; 11 (acute lymphoblastic leukemia, ALL); assay: In vivo RS4;11 ALL xenograft, bioluminescence imaging; conditions: RS4;11 challenged NSG mice
From the text: (§3) FIG. 4A is a schematic showing treatment schedule following Day 0 tumor challenge with minimum lethal dose of tumors. Treatments were given by IV tail vein injections. FIGS. 4B and 4C are images showing chimeric antibodies targeting human BAFF-R elicited in vivo therapeutic effects against B-cell tumors. Bioluminescence images of mice challenged with luciferase-expressing tumors: JeKo-1 (MCL) (FIG. 4B) or RS4; 11 (ALL) (FIG. 4C). Experimental groups received treatment of chimeric BAFF-R mAbs (C55 or C90, as indicated). Control group mice received PBS, NK cells alone, or rituximab on the same schedule. Data are representative of three independent experiments.
as §2

[3] = system: JeKo-1-CD20-KO tumor cells; assay: In vivo JeKo-1-CD20-KO xenograft; design: species or system NSG mice
From the text: as §1, §2

Mino cells = assay: Antibody internalization by flow cytometry; type: cell-based; conditions: 37° C. for 1 hour
Procedure: Mino cells were incubated with mAb C90 (0.05 μg/10^6 cells) at 4° C. for 20 minutes followed by incubation at 37° C. for 1 hour. Flow cytometry analysis was performed with anti-mouse IgG-APC. Cells were gated for surface localized antibodies (OUT) and loss of cell surface staining (IN).

JeKo-1 MCL cell line = assay: In vivo JeKo-1 MCL xenograft, bioluminescence imaging; design: species or system NSG mice; conditions: compared with PBS or NK cells alone
From the text: as §3, §2

[4] = system: primary CLL (n=3) and MCL (n=2) samples; assay: ADCC on primary samples from rituximab-treated patients; type: cell-based, human; conditions: patients previously treated with rituximab; E:T=20:1
Procedure: FIGS. 3A and 3B are graphs showing BAFF-R monoclonal antibodies induce in vitro Antibody Dependent Cell-Mediated Cytotoxicity (ADCC) against primary B-cell tumors. Antibody-dependent cell-mediated cytotoxicity (ADCC) effects were measured by chromium-51 release after incubation with C55, C90, or rituximab and effectors (NK cells). […] Data are shown as the mean±s.d. of triplicate samples. *P<0.05 compared with NK cells by two-tailed Student's t-test.
(§4) Cytotoxicity assays. Target cells (L cells, human tumor lines, primary patient samples) were labeled with chromium-51 (51Cr, Perkin Elmer, Waltham, MA) for a 51Cr release assay. Briefly, antibodies and effectors (NK cells or complement serum standard [Sigma Aldrich, St. Louis, MO]), were added to labeled target cells and incubated up to 18 hours. NK cells were enriched from PBMC (NK cell enrichment kit, Stemcell Technologies, Vancouver, Canada). 51Cr released into supernatant was detected with a Wizard Automatic Gamma Counter (Perkin Elmer).

[5] = system: BAFF-R-expressing L cells and JeKo-1; assay: ADCC chromium-51 release assay, L cells, JeKo-1, U266; type: cell-based; conditions: NK cells E:T 20:1; BAFF-R positive vs negative targets
Procedure: Antibody-induced cytotoxicities measured by chromium-51 release after incubation with C55, C90, or rituximab and effectors (NK cells or complement containing serum). NK effector cell to target ratio (E:T) of 20:1. […] Data are shown as the mean±s.d. of triplicate samples. *P<0.05 compared with NK cells by two-tailed Student's t-test.
FIG. 12 is a graph showing chimeric antibodies induced ADCC against BAFF-R expressing L cells. BAFF-R-expressing D2C L cells (targets) were labeled with chromium-51 followed by incubation overnight with chimeric mAb+NK cells (effector to target ratio, 20:1). Culture supernatant was analyzed for released chromium.
as §4

[6] = system: JeKo-1 (MCL), SU-DHL-6 (DLBCL), Raji (Burkitt lymphoma), and RL (FL); assay: Flow cytometry binding to NHL cell lines; design: species or system human; conditions: chimeric antibodies conjugated to Alexa Fluor 488
From the text: FIGS. 1A, 1B, 1C, 1D and 1E are FACS images showing generation and specificity of novel monoclonal antibodies against human BAFF-R. FIG. 1A is a FACS analysis of cell surface expression of hBAFF-R-GFP fusion protein in mouse fibroblast L cells. Gated on GFP-positive cells, engineered L cell clone (right plot) is compared to parental L cells (left plot). Clone D2C was selected for further studies. FIGS. 1B, 1C, 1D and 1E are FACS traces of fluorescent counts of anti-BAFF-R antibodies binding cell lines and patient samples. […] BAFF-R-negative 293T embryonic kidney cell line was used as a control. […] Parental L cells and secondary anti-hIgG-APC antibodies only were used as controls. […] The data are representative of three independent experiments. For all of FIGS. 1B-1E, the traces from top to bottom as shown in the figures correlate with the variables (e.g., antibody type or cell type) used from top to bottom shown below or next to the figures.
FIG. 10 are results of FACS analyses showing hBAFF-R mAbs recognized non-Hodgkin lymphoma cell lines in vitro. […] The traces from top to bottom as shown in the figures correlate with the variables (e.g., antibody type or cell type) used from top to bottom shown next to the figures.

JeKo-1-CD20-KO clone 25 = assay: ADCC on rituximab-resistant JeKo-1-CD20-KO; type: cell-based; conditions: E:T=20:1
Procedure: FIGS. 5A, 5B and 5C are images or graphs showing chimeric BAFF-R antibodies induce ADCC on drug resistant lymphoma models in vitro. FIG. 5A is a scatterplot of FACS analysis showing CD20 binding on JeKo-1 cells following CRISPR/HDR knock-out of CD20 gene. CD20 expression on selected CD20−/−clone #25 compared to WT JeKo-1. ADCC effects measured by chromium-51 release after incubation with C55, C90, or rituximab and effectors NK cells (E:T=20:1). Percentage of cell specific lysis of target cells: rituximab-resistant JeKo-1-CD20-KO (FIG. 5B) and ibrutinib-resistant Z-138 and SP49-IR (FIG. 5C). All data are representative of two or more identical experiments. Data are shown as the mean±s.d. of triplicate samples. *P<0.05 compared with NK cells by two-tailed Student's t-test.
as §4
Generation of JeKo-1-CD20-KO. […]

B1: C55: chimeric anti-BAFF-R mAb from clone 55 containing human IgG1 constant regions (antibody, V domains shown)
VH: QVTLKESGPGILKPSQTLSLTCSFSGFSLSTSGMGVGWIRQPSGKGLEWLAHIWWDDDKYYNSSLKSHLTISKDTSRNQVFLKITSVDTADTATYYCARSFGYGLDYWGQGTTLTVSSAS
VL: DIQMTQTTSSLSASLGDRVTISCSASQDISNYLNWYQQKPDGTVKLLIYYTSSLHSGVPSRFSGSGSGTDYSLTISSLEPEDIATYYCHQFSELPWTFGGGTKLEIKRT
antitumor effects [1]: significant effects were observed | tumor growth [2]: markedly retarded tumor growth | tumor free and long-term overall survival ([3]; 80-day curves): significant antitumor effects | tumor burden by bioluminescent imaging ([3]; Day 20): no visible tumors | internalization upon binding BAFF-R (Mino cells): limited internalization | tumor growth (JeKo-1 MCL cell line): significant retardation of tumor growth | ADCC killing of primary samples [4]: sensitive to killing by ADCC | antibody-dependent cell-mediated cytotoxicity (ADCC) [5]: specifically against BAFF-R-expressing L cells and JeKo-1, but not BAFF-R negative L cells nor the BAFF-R negative human multiple myeloma line, U266 | direct binding to NHL lines [6]: exhibited direct binding | sensitivity to antibody-mediated cytotoxicity (JeKo-1-CD20-KO clone 25): retained sensitivity
